Results taken from the DeepSol protein solubility set.

Experiment: soluble on expression in E. coli; label from the status in PepcDB or PDB records

Sequence | soluble on expression in E. coli
MAHHHHHHMPRVQLFIDNGGYSVKALYLPASADTSNRSAATHASALTSSSTHGEAAATAATVAPAPKVLVVPNCVGAAVYAGTGIMGDQLDHLPHYHGLMVRRPVDRGFVVDGGLQARVWEHVLQHFSIESEEEVDVWLVVPFAAPKAVAQLLWLLCTRSFRFGSVTVVSSSFMSLIAYKFARGASAPSSAARKRPRSTVDTDAQESPGCSGSSATGGGMAIMVDVGFSATTVVPYVNYIPVYSSVVRLDVGGKVLTNRLKEYISFSQMNVIEDTWLINHVKEQCCVVARHPRRSLQRYAALWKGRTRDEVEAAAGALSTLRREDGGSGDGQASRSQRPGAPVAGVLTSPDVPIRYYLPTIPALLPLGVLEAELPSRLPKTSGVDAAALQHLLLCQERFLIPELLFTPADVGINQQGVAQAITEGIFQRGLLQHLTKLLRPLLLHNVCVYGGTASQPNFRDRLEAEVAAVAPQSPDCDADLDLKDSKRSSSSSRHGATEACADRTTCLSATPALPEFLLKAGGASTDLSLQPLLGAWCLLSATVDSGSNGGASQRELLRLRALVHERSGIELQHPPAGRVTVETFQHALERML | not soluble
MALQSSVRAFKKPPRPLVDEVRFLRSWIEKPLHMGAVMPSGKLLARTMARYVDIQSDGPVIELGPGTGAITNALVEHGVDQKRLVLLEFDPGFCALLRERFPLAKVVQGDAYRLRDSLWDALEIPATAVVSGLPLVTKPMLTRMKLIRDAFTLLEPGAPFVQFTYSVAPPIPKSLPGVSTEGSERIWMNVPPARVWVYRKRLEHHHHHH | not soluble
MGSDKIHHHHHHMSIIYRRRSIRKYQKKDVPDELVKEIIRAAMHAPSACNQQPWHFVVIRNEETKKKIAEIHPHAQMSAEAPVVILVCGDPTLEKCKGYWIQDCSAAVENLLLRATELGLGAVWCGVYPREERVKAFRELLGIPEHVVPFALVPVGYPAEHPVQVDRFKPERIHYEKW | not soluble
GPGSMVKPRSQGPRRPAVKQADNKSVGDRSKTAVTEKMKPSRLVGGTTGAKKERREGKKVSTGKANKVAATSASTVVLKEGGKPSGPSHGTGTNSSRRGKRSPQAQTRRAAARVASRVIESNSRITAATNRMNTAREELALFDQVTQMPAFVADPFTAIDEHLSTAMDFLQPQTPDVGRVKRE | soluble
ELKAKILHIPGDELINHNNQILEEYDHSQNTLIVGPNHVNSNIIHALTASEDTLFYKHNGIMPKALLRAMLQDITNSNQSSGGSTITQQLVKNQVLSNKKTYSRKANEIILATRVENLLSKDEIIYTYLNIVPFGHDYNGANITGISSASYSLFGIPAKDLNIAQSAYLIGLLQSPYGY | not soluble
MLNDLYEEIKLRKTQPREGSYTNYLFDKGLDKILKKVGEEATEVVIAAKNDNQELIAEVSDLAYHLLVLLAEKNIPLVAIQTELQKREGKLSTTRDRKEINDL | not soluble
MGSDKIHHHHHHADDSYLIDGGKANPYYNGNMMQYLESRPDYFKDLVEVIRLSGMEDVFEDEQITFFAPTDWSIRGSFNYLNRIWYRMGHDSIKSFSQIKPEVWREMLSMYIVKDKYLLKDIPQIDTTAIAAYPGQAFLSYGQQPMNMGVVYYDANNVKYAGARQIIYSYVYDFTIGDMKNAYVATSDIQPTNGVVHVLRLTDHAFGFEPYLFATKAINATIETEPDN | not soluble
MLLMEKILYQTDEFKLKPSGWYKTIPPKKDGGTEFEIMLSGPIAFTDRFIDPATRKEKVFLSDLNNIELVEKASILTALQLPSLIEYGFTINEKHIRDLGFVLQQMRSTTPLSTIYSGVGMLHTLLGPLISLDQPYFSNEITNSTSIICDNKYDLIPKGNLSEWLQMYKEEVHGNLSLELDVLFGVSSLVTAFLKYHNNVEFSGTIFSFTGQSSTGKSTAAMLAASVAGNPTKGTENLFRSWNATRNALEGYLSGNYGVPIVLDELSAATFHDTTGLLYSFAEGQGRQRANINGDVKTPKNLEHHHHHH | not soluble
MGSDKIHHHHHHAATSNKKNTIKLISTNNNIKIPVYDRQGKQINGFTVESGANVTVIGKPIIVQQKYRKDVFEGIKINGKTYASLGDGGYIPINATGVITSKGMKITRDTAVYNKNGKKLSTYRGHTATLKKDSIVKYGGATTYTIPVSYFNIGNGRYVRASYVQEYNGQTVLTLNYNTFVYNKKGKRINYDGQRKLMNGGVVTTNSKIREAKSSDQNYFYSSANYTDKNKLAFTTTKIKGQDYLSIGKGEYIKIANVKTANGMILFTKGPITITLPSDTTIYSSNFKETKKQIAAGKKVILDKTEIDNSLSDPQLYFRIKGTNELIYWGDLGEYPGVDHTAVYDPNYYSIYSFPLRQFME | not soluble
MSLVMDYEGFKKEIFKLTGIDLGSYKEKQMKRRLDSLISKNNFSGYKTYIEALKTDKKLFNEFINYMTINVSEFYRNPEQWEKLKNIILPSLLEKNSNPKIWSAACSSGDEPYTLVMILNEFLPLNKIKIIATDIDAEILVKAKNGLYTEKSIANLPKKYVEKYFKVDGDVYAINQEVKNCVEFSKHNLLADPYPKNCDLIVCRNVLIYFTEEAKAEIYKKFNRALKTGGVLFVGSTEQIILYNLYNFKPIQTFFYQKEKEGHHHHHH | soluble
MAHHHHHHMSLPIIRLRTVNSNHATAAYDPVTASCTLYGFLRSVPSRFECDMAMSDFKRGVQAAQGQKCLAKNNANMLNRVFSSVQDRLLRELPKIIPQLARNSSTWRRLLSGAESTSSMSSTPTATRLQDNARSLHNEESTQPSIPSTPLPSAGTGENGNKGNHKNGDHHSSAEEILVEETVSTTSTRFKSPYEQIPPPIHLTASEHKESRATGGMQGEAGERKDASTVVEHRGKGNNLPGKGYRPHPLLLAILERVRSSCSAEENESDREEREFTTIMESREKALRTKLSSAYSMIPPEEKNFKGFLREMEARVAVAQKLFEVQKFEETTIRTTECALKIEVATMRALLHQIVDAVAEAEERHEREGPRSPYYAEECHVMAAIQQALDDLAS | not soluble
MSEEAEAGPSPKVNGENGNGTNTFDDLYVDDKMRRMIVDLQRQWLTDYHDSREKSLVALTEKLHQEFMEDQERVRRDLLVQFKIELDQTKEELEKKHAENLKEEIEKLSEKHQRELAVAKKKQWCWQCNSEAIYHCCWNTAYCSVECQQGHWQIHRKFCRRKKSNGGAPGPVQPIAEPTQSQQ | soluble
MAHHHHHHMSVSRFRHSTGHVAKPQRHLLNVTSSTALWDGSNTISCNDKFVAVPWQTFGGTAVFKHDTFGRLAPNPPLVLGQKGQIIDVKFDPFNDQKLFTASEDGSIFGWGIPAEGLQSNILSPLVELKGHNKKCGIISFHPSANGVLASAGVDRVIKVWDVERGTAVNTISSLSDYATGLEWNLRGSLFCVASRDKTLRVIDPRDCTVVSSVESHASARSQRCIWCKRKDTIMTLGCSKSQQRQIKLWDTRKMESPYSVTELDQSSAAFIPMYDEDLNLLILGSKGENNVKCFELMNEGLTFSYEVNSNDPMKGLCMMPKWSLDVKKCEFGRLYQLTYHSLFTIEMLLPRKQSCTEFQGDVFPSTFADHSAMSADEFFRGANADPREYDLSGMFDGHSPRLMGGSTPSPEKLPVAVQAAKPLMEAPKGETTTGREKSSVSVPESSEATSAPSDDKTEKHADPCADMTQRDILDKQRRLQELSEKVRTCHHEISALRKALHEKEAEMLQVLEDIQSI | not soluble
MGSDKIHHHHHHMNKPKVPPTITEQPDEQTFAYLLAHIQQTRQQVFAQVNTALIELYWSVGKTISEKVVSAGWGKGVVKQLAAYLASQAPDIKGFSDKNLWRMKQFYETYQHDIKLASLVRVLPWTHNTIIFSRCKSNREREHYLMLVQRERLSSRELERHINAAHFERSLIEQPKLSAVLRQSHPIANTIFKDNYTLEFLGLPSSHSESDLQKAIINNLKTFILELGKDFIFIDEEYRLQVGNQDFYIDLLFFHRGLAALVAFELKIGKFSPQHLGQLDFYLEALDRDVKKPHENPSIGVLLCRDKDDEVVEYALSRNLSPTLVAQYQCQMPDKQLLQAKLHQLLQDLPAQDELASQHMTEQMPRQGEYNE | not soluble
MGSDKIHHHHHHMLLKNASFYDDEVLKRADIRLKDSLITEIKENLSPINNEEVIECRDLFVLPSFIDLSVTGLEGYENLKQKAFKGGVGLLNVFNCDQSGIKNIMAIKNNQLADIATLKNKGGEILIAPSDAFLELISHYAKSYNLPLLISLENSFEALNSGELAYELGQNFVENAFENTRLVRFMEVSRALQIPVLLDKVNSITTLKLIKAFNDLGAKLQAQTPLSHLVLDESVYEDYEPRFKIAPPLRDKESQNALKEALKNNEIAMLTSLHASKNSNAQLFEESAFGCESIEDAFSVAYTFLVQKKVISFQQLIKVMAINQAKFLKLNAGEVKENQLANLMIVDLNAQTRVSNQNSPFYGLELYGEVQRMILKGQTTFIKENACKKS | not soluble
MAKAKTQFVCQNCGTVHNRWAGKCEGCGEWNTIVEEDPMGGIGSGPGKVPKKGRPVTLTSLSGEIEEAPRIPTGISELDRATGGGFVRGSAVLIGGDPGIGKSTLLMQAAAALSRRGHRVIYVSGEEAVAQVRLRAQRLGSADTDVLLAAETNVEDILATVSEGKRPDLIIIDSIQTLWSDTADSAPGTVTQVRTGVQAMIRFAKQTGATMVLVGHVTKEGQIAGPRVVEHMVDAVLYFEGDRGHHYRILRTVKNRFGPTDEIGVFEMSDGGLREVSNPSELFLGERNEKSPGAAVFAGIEGTRPVLVEVQALVAATSLGTPRRAVVGWDSSRLAMILAVLEAHCGVKLGQHDVYLNVAGGYRISEPAADMAIASALVSSLAGLALPADCVYFGEISLSGAVRPVAHTVQRLKEAEKLGFSAALLPSGSAELPKAGKGRWTEIESLPDLVAHIAGSGNRFKQVEDDEY | not soluble
MIDKSGYRANVAIVLLNKQNRVFWGQRRNRTSWQFPQGGVATGETPLQAMYRELHEEIGLRPQDVEVIASTRDWYKYDIPDSLVRTKEPICIGQKQKWFLLKLKSPESYIDLDANDSPEFDNWRWVSYWYPINHVVYFKQEVYRKALTYFKEYIA | not soluble
MNVTPWEVEGVIDYSKLIEEFGMQPFSEVLPEIDNPHILMRRGAIFGHRDYWRIIEAMQKKEPWAVMSGFMPSGLPHFGHKMTMDEIVWHQSAGGKAFVAIADMEAHSVRGLSWEKTRELGMLYIKSIIALGLREDAVIYFQSKSSHVKDLAFELSAEVNFSELRAIYGFNSDTSLAKMFVTAIQAADILHPQLSDFGGPKPVVVPVGADQDPHMRLTRDLAARISIFSFEPVEGGVRVRSRKGAEYLSSLRDLEFDKKIYEEHMDIFGEAEEIERAVRKIEVEIGGFAFIPPSSTYHRFTTGLTGGKMSSSKPESYISLLDPPEEGAKKVMKAFTGGRATAEEQRRLGGEPDRCVVFELYSFHLIDSDEELNQIEAECREGRLLCGKCKKMAAELVKSFLKEHQEKMEAVDLSNYTIIG | not soluble
MGSDKIHHHHHHMKSELFYRKLEKCDLCPRNCGVNRLMGEKGACGVANSPVVSSWGPHFGEERILVGRGGSGTVFFTYCNLKCVYCQNYEISQLGIGKEITVEDLLRIFTELQDMGVENLNLVTPTHQIPFIVDAFERMEKEIPVVYNCGGYESVDTIISLEGFVDIYMPDFKYSDPELGEKLSGVKDYPRFALEALKVMIDQMGEPVIRNGVMKKGVLVRHLVLPGFLEDSFGVIDLLSTLEPKPLVNIMAQFYPAYRAKEYGLDRFITRDEYLKVVEYAKKKKLNLIEVERWLRWL | not soluble
MGSDKIHHHHHHMRIQQLHYIIKIVECGSMNEAAKQLFITQPSLSNAVKDLEMEMGITIFNRNPKGITLTKDGVEFLSYARQIIEQTSLLEDRYKNHNTGRELFSVSSQHYAFVVNAFVSLLKRTDMTRYELFLRETRTWEIIDDVKNFRSEIGVLFINDYNRDVLTKLFDDNHLTASPLFKAQPHIFVSKSNPLATKSLLSMDDLRDFPYLSYDQGIHNSFYFSEEMMSQMPHNKSIVVSDRATLFNLMIGLDGYTVASGILNSNLNGDQIVAIPLDVPDEIDIVFIKHEKANLSKMGERFIEYLLEEVTFD | not soluble
